For orientation: Kd means the free concentration of one partner at which half of the binding sites on the other are occupied at equilibrium, for simple one-to-one binding. As a reminder, the koff is the rate constant with which the complex falls apart.

In experiment [1] the target is T1, human nerve growth factor (NGF) (human, UniProt P01138 122-241).
T1 construct: Immobilized on CM5 chip in BIAcore assays; also called human NGF; hNGF
The experiment in a line: BIAcore SPR; KD calculated from koff using kon 4e4 M^-1s^-1. On the procedure:
(§1) Affinities of anti-NGF Fabs and monoclonal antibodies were determined using the BIAcore3000™ surface plasmon resonance (SPR) system (BIAcore, INC, Piscaway N.J.). CM5 chips were activated with N-ethyl-N′-(3-dimethylaminopropyl)-carbodiinide hydrochloride (EDC) and N-hydroxysuccinimide (NHS) according to the supplier's instructions. Human NGF was diluted into 10 mM sodium acetate pH 4.0 and injected over the activated chip at a concentration of 0.005 mg/mL. Using variable flow time across the individual chip channels, two ranges of antigen density were achieved: 100-200 response units (RU) for detailed kinetic studies and 500-600 RU for screening assays. The chip was blocked with ethanolamine. […] HBS-EP buffer (0.01M HEPES, pH 7.4, 0.15 NaCl, 3 mM EDTA, 0.005% Surfactant […]) was used as running buffer for all the BIAcore assays.
(§2) For affinity screening experiments, each library was further paired with the corresponding CDR-grafted light or heavy chain (for example, the H1/H2 library was paired with CDR-grafted light chain), the antibody was expressed, and affinity to human NGF of the individual clones was screened using the BIACORE surface plasmon resonance (SPR) system (BIAcore, Inc. Piscataway, N.J.) according to the manufacturer's instructions and as described above. koff, kₒₙ and KD were determined. […]

The target of experiment [2] is T1, human nerve growth factor (NGF). The experiment in a line: BIAcore SPR screening of Fab clones on immobilized human NGF. On the procedure: as §1, §2
In general terms: Surface plasmon resonance follows binding to a sensor surface in real time, without labels.

T1 sequence (P01138 122-241 limits assumed): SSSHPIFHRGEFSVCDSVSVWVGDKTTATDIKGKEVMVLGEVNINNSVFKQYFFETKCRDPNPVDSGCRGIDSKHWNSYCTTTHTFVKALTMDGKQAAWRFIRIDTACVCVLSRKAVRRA

B1: light chain library clone L81 (Fab, V domains shown)
VH: QVQLQESGPGLVKPSETLSLTCTVSGFSLIGYDINWIRQPPGKGLEWIGMIWGDGTTDYNSALKSRVTISKDTSKNQFSLKLSSVTAADTAVYYCARGGYYYGTSYYFDYWGQGTLVTVS
VL: DIQMTQSPSSLSASVGDRVTITCRAFQAISNQLNWYQQKPGKAPKLLIYYTSRFHTGVPSRFSGSGSGTDFTFTISSLQPEDIATYYCQQSKTLPYTFGQGTKLEIKR
notes: Substitutions derived by comparing printed CDRs with the 8L2-6D5 control
On to B1, for which the Kd in experiment [1] is 18 nM. In experiment [2], this molecule registered a koff of 0.00074 s⁻¹.

Values taken from patent US20100111970A1 (published 2010).
